Results: the supplement of paper PMC10567573

B1: FAM116A (parent)
chain: TVHEVDIFRCFCPVFLHSQMLWEL
B2: STX5 (parent)
chain: ESTIVELGSIFQQLAHMVKEQEET

Variants of: B1
Assay: protein stability index of a GFP-peptide fusion (GPS, HEK-293T) (PSI 1-6); higher = more stable
Conditions: c terminus: a fixed tail appended
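Further: lentivirally expressed fusions sorted by FACS into six bins by GFP to DsRed ratio, PSI derived from sequencing read proportions per bin multiplied by bin number.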

Protein stability index of substitutions, site by site:
V2: E 1.04; W 2.7; Q 2.08; A 1.77; R 3.97; M 2.05; K 1.73; N 1.76; Y 3.92; C 2.57
T1: I 1.4; R 3.09; M 1.98; D 4.17; H 3.11; G 1.75; P 1.67; L 1.68; K 2.66; Y 2.93; Q 3.46
H3: P 3.24; E 1.82; G 3.96; F 2.37; W 3.13; K 2.14; Y 3.37; L 2.85; D 2.26; N 3.08; T 1.85
V5: K 1.93; N 1.84
E4: D 1.46; I 3.19; H 3.03; K 3.86; T 3.43; Q 1.79; S 4.26; C 1.53; R 3.14; Y 3.35; P 3.77

Variants of: B2
Assay: as above
Conditions: c terminus: a fixed tail appended

Protein stability index: each site, then its substitutions
E20: K 2.86; Y 3.75; F 1.98; G 2.02; W 1.86; N 1.53; D 2.78; H 1.62; Q 1.12; M 4.03; C 2.54; A 2.19; P 1.61; S 2.08; R 1.76; T 1.18
F11: N 5.61; L 2.8; Q 3.48; G 5.35; A 3.83; D 5.77; H 5.76; I 2.27; Y 3.19; C 3.62; S 4.27; M 2.98; R 4.92; T 4.81; W 2.83; P 4.65; V 3.19; K 4.85
Q13: H 2.43; M 1.98; F 1.57; V 2.16; P 4.54; W 1.88; C 2.32; A 2.4; K 2.8; S 2.95; N 2.23; T 3.28; G 4.12; I 1.44; L 1.54; Y 2.37; E 2.57
E23: P 2.06; K 1.48; D 2.19; H 2.11; T 1.32; N 1.47; A 1.88; L 1.42; C 1.83; Y 1.2; V 3.06; R 1.77; S 1.23; G 1.28; I 2.38; Q 2.5
H16: L 2.75; K 2.27; Q 1.33; R 1.79; E 1.96; V 2.43; A 2.13; N 1.97; Y 1.67; I 1.88; M 3; S 2.36; T 3.09; G 2.13; F 2.02; P 4.65; D 1.78
K19: T 2.41; C 1.41; S 1.97; H 2.44; I 1.59; Y 1.17; D 4.35; A 1.81; E 2.92; R 1.85; P 4.08; Q 2.32; M 1.9; F 2.31; N 2.95; G 2.76
E22: N 1.98; T 1.39; Q 2.65; S 2.44; Y 1.39; W 1.53; C 2.4; G 1.06; A 2.75; D 1.97; L 5.42; H 1.3; M 2.89; P 1.69; F 2.88; I 2.7; K 2
I10: L 2.63; P 5.58; W 2.58; D 5.88; E 5.46; S 4.89; K 3.69; H 4.5; R 3.9; N 5.07; C 3.72; V 3.1; Q 4.27; A 4.32; F 2.26; Y 3.49; T 4.49; M 2.6
A15: V 2.24; D 4.28; M 1.74; F 2.09; G 3.91; Y 1.74; K 3.1; S 2.99; C 2.21; N 3.67; R 2.67; Q 2.81; H 3.15; T 3.66; L 1.76; E 4.21; P 4.91; I 1.53; W 2.18
G8: R 1.84; T 2.69; S 2.79; N 2.44; P 3.99; L 1.85; Q 1.68; M 1.35; Y 3.89
T24: L 1.5; E 2.12; W 2.89; V 2.01; C 1.62; F 1.6; R 2.12; N 2.88; Y 2.29; H 2.42; K 1.83; I 1.78; G 1.97; Q 1.59; P 2.77; A 2.17; D 1.89; S 2
L14: K 5.2; W 3.17; F 1.69; R 5.32; S 5.26; N 5.24; G 4.64; P 4.93; C 4.42; I 2.09; V 2.81; M 3.77; Q 4.75; Y 1.81; E 5.33; A 4.31; D 5.05; T 4.78; H 4.11
S9: A 1.65; Y 1.46; K 2.34; G 3.22; Q 2.1; L 1.71; R 2.41; D 2.55; N 2.26; T 2.11; V 1.8; E 2.08; M 1.87; H 2.64; C 1.63; I 1.32
Q21: E 3.05; C 1.91; V 1.73; P 3.29; R 1.36; T 2.88; M 1.87; S 1.81; D 2.4; K 2.6; L 2.67; G 2.75; A 1.67; F 1.98; N 2.12; W 3.33; I 1.64; H 1.97; Y 2.23
M17: T 4.18; C 3.6; D 4.11; R 3; N 4.16; S 3.4; F 2.46; W 2.06; E 3.41; K 2.06; Q 2.26; G 3.86; I 2.3; A 2.83; L 1.7; P 4.59; Y 3.29; H 3.7
V18: C 2.44; S 4.14; N 4.38; I 2.41; K 4.16; R 3.65; E 4.64; G 4.6; A 3.27; H 3.73; Q 2.37; F 1.81; W 2.22; Y 2.44; M 2.79; L 1.8; D 5.09; T 3.45; P 4.45
Q12: R 2.4; N 2.99; K 1.79; Y 2.17; V 2.07; F 2.26; H 3.15; C 1.7; A 1.98; S 2.1; D 3.34; M 1.98; W 1.32; P 4.39; L 3.46; T 1.93; I 2.26
